Measurements reported in patent US20250026820A1 (WUHAN YZY BIOPHARMA, published 2025).

T1: TGFβ2 protein (GenScript Z03429) (human, UniProt P61812 303-414)
T1 construct: also called human TGF-β2
T1 sequence (looked up): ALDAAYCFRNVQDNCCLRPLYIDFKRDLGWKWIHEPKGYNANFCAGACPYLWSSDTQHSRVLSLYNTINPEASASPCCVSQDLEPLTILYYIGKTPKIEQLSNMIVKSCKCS

T2: TGFβ3 protein (GenScript Z03430) (human, UniProt P10600 301-412)
T2 construct: also called human TGF-β3
T2 sequence (looked up): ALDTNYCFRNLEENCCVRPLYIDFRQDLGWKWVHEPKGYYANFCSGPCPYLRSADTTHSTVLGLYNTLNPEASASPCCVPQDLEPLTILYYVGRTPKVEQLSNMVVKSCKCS


What was measured:
[1] = target: T3, TGFβ1 protein (GenScript Z03411) (human, UniProt P01137 279-390); test: ELISA; plate coated with human TGF-β1; antibody titrated; HRP anti-human Fc
T3 construct: also called human TGF-β1; TGFβ1 antigen
Procedure: (§1) A microplate was coated with 2 μL/well of the human TGF-β1/2/3 protein solution, respectively, at 4° C. overnight; the supernatant was discarded, 300 μL of a blocking solution (PBS containing 3% BSA) was added to each well, and the plate was blocked at 37° C. for 2 h; the antibodies were gradiently diluted, and the diluent was PBS containing 1% BSA. For example, the initial concentration of the antibody dilution was 500 nM, and diluted 10-fold to obtain 8 concentration gradients. The diluted antibody was added to the well of the microplate at 200 μL per well, the plate was left to stand and incubated at room temperature for 2 h, and the supernatant was discarded; the plate was washed for 3 times with 200 μL/well PBST (PBS containing 0.1% Tween 20); a diluted HRP-labeled anti-human Fc secondary antibody (SIGMA, A8667) was added, the secondary antibody was used after a 1:20000 dilution, the diluent was PBS containing 1% BSA, the volume was 100 μL/well, and the plate was incubated at room temperature for 1 h; the plate was washed for 5 times with 200 μL/well PBST; a TMB chromogenic solution (BD, 55214) was added at 100 μL/well for color development at 37° C. for 8 min. 2 M HCl stop solution was added at 100 μL/well. After the addition of the stop solution, the 450 nm values were read using a microplate reader within 30 min. Data were analyzed using GraphPad Prism 6.0 software and avidity fitting was performed to give EC50 values.

[2] = target: T1, TGFβ2 protein (GenScript Z03429); test: ELISA; plate coated with human TGF-β2; antibody titrated; HRP anti-human Fc
Procedure: as §1

[3] = target: T2, TGFβ3 protein (GenScript Z03430); test: ELISA; plate coated with human TGF-β3; antibody titrated; HRP anti-human Fc
Procedure: as §1

[4] = target: T3, TGFβ1 protein (GenScript Z03411); test: cell-based or functional assay

T3 sequence (P01137 279-390 limits assumed, one chain of several): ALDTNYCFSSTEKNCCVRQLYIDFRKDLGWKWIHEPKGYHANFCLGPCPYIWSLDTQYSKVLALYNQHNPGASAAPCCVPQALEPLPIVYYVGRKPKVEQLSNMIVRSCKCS

| EC50 [1] [nM] | EC50 [2] [nM] | EC50 [3] [nM] | EC50 of TGF-β1 inhibitory activity (TF-1 cell proliferation) [4] [nM] | Binder |
| --- | --- | --- | --- | --- |
| 0.747 | 0.939 | 1.22 | – | B3D6 anti-TGFβ single domain heavy-chain antibody (variable region, linker peptide, human IgG1 heavy chain constant region) (Fc fusion, not shown: linker peptide (GGGGS)n, n=1, 2 or 3; human IgG1 heavy chain constant region, GenBank No. AK303185.1) heavy: EVQLVESGGGLVQAGGSLRLSCAASGRSFSSLAVGWFRQPPGKKREIVAAVNWSGTSTYYPDSVKGRFSISRDNTKNTVYLQMNSLKPEDTAVYYCAADPDLRWLKLWGYEYWGQGTQVTVSS |
| 1.48 | 1.62 | 1.46 | – | B3F3 anti-TGFβ single domain heavy-chain antibody (variable region, linker peptide, human IgG1 heavy chain constant region) (Fc fusion, not shown: linker peptide (GGGGS)n, n=1, 2 or 3; human IgG1 heavy chain constant region, GenBank No. AK303185.1) heavy: QVQLVESGGGLVQPGESLRLSCTASGSIFGVFYMGWFRQAPGKQRDMVAISTDDRTSYADSVKGRFTISRDNAKNTLALQMNSLKPEDTAVYFCNLNQLGTDYWGPGTQVTVSS |
| 48 | 1.18 | 1.3 | – | B2A2 anti-TGFβ single domain heavy-chain antibody (variable region, linker peptide, human IgG1 heavy chain constant region) (Fc fusion, not shown: linker peptide (GGGGS)n, n=1, 2 or 3; human IgG1 heavy chain constant region, GenBank No. AK303185.1) heavy: EVQVVESGGAAVQPGESLRLSCAASGSIFNTATMGWFRQAPGKQREMVAIITDGGRTNYADSVKGRFTISRDATKNTVYLQMNSLNPGDTAVYYCNALTIVPRSSIYWGQGTQVTVSS |
| 0.442 | 1.85 | 0.546 | – | B1C5 anti-TGFβ single domain heavy-chain antibody (variable region, linker peptide, human IgG1 heavy chain constant region) (Fc fusion, not shown: linker peptide (GGGGS)n, n=1, 2 or 3; human IgG1 heavy chain constant region, GenBank No. AK303185.1) heavy: EVQLVESGGGEVRPGGSLRLSCVVSGFTKDYGAIGWFRQAPGQEREGLGCIARKDGDTWSADSVKGRFTISRDNVRNTVYLQMNALKPEDRGVYYCAGDPSALYGCSDRSSEYQYWGQGTQVTVSS |

Continued, binder first:

| Binder | EC50 [1] [nM] | EC50 [2] [nM] | EC50 [3] [nM] | EC50 of TGF-β1 inhibitory activity (TF-1 cell proliferation) [4] [nM] |
| --- | --- | --- | --- | --- |
| B1B7 anti-TGFβ single domain heavy-chain antibody (variable region, linker peptide, human IgG1 heavy chain constant region) (Fc fusion, not shown: linker peptide (GGGGS)n, n=1, 2 or 3; human IgG1 heavy chain constant region, GenBank No. AK303185.1) heavy: QVQLVESGGGLVQPGGSLTLSCTASGSMFSFYTMGWYRQATGKQRELVAGISLGGETTYAPSVKDRFTISRDNAKNTVYLQMNSLKPEDTALYNCNAYWGEDYWGQGTQVTVSS | 7.01 | 148 | 162 | – |
| B2H1 anti-TGFβ single domain heavy-chain antibody (variable region, linker peptide, human IgG1 heavy chain constant region) (Fc fusion, not shown: linker peptide (GGGGS)n, n=1, 2 or 3; human IgG1 heavy chain constant region, GenBank No. AK303185.1) heavy: QLQLVESGGGLVQPGESLRLSCAASGIIFSASTMAWFRQAPGKQRELVALITDGDRTNYADSVKGRFTISRDNAENTVYLQMTELKFEDTAVYYCNAFWLKAYWGQGTQVTVSS | 130 | 1.54 | 1.71 | – |
| B2G8 anti-TGFβ single domain heavy-chain antibody (variable region, linker peptide, human IgG1 heavy chain constant region) (Fc fusion, not shown: linker peptide (GGGGS)n, n=1, 2 or 3; human IgG1 heavy chain constant region, GenBank No. AK303185.1) heavy: QVQLVESGGGLVQPGGSLRLSCAASGISFSYYDMGWFRQAPGKQRELVAIVTSGGRTNYADSVKGRFTISRETAKSTMYLQMNSLKSEDTGVYYCNAHWIVTTDYWGQGTQVTVAS | 1.72 | 1.73 | 1.47 | – |
| B1B8 anti-TGFβ single domain heavy-chain antibody (variable region, linker peptide, human IgG1 heavy chain constant region) (Fc fusion, not shown: linker peptide (GGGGS)n, n=1, 2 or 3; human IgG1 heavy chain constant region, GenBank No. AK303185.1) heavy: EVQVVESGGGLVQPGGSLTLSCVASGFAFSFTPMRWVRQAPGKGLEWVSSISIRGDTTDYADSVKGRFTISRDNAKNTLYLQMNSLKPEDTAVYYCSRGSSISTSTERTQGTQVTVSS | 0.533 | 0.464 | 0.817 | – |
| B3D2 anti-TGFβ single domain heavy-chain antibody (variable region, linker peptide, human IgG1 heavy chain constant region) (Fc fusion, not shown: linker peptide (GGGGS)n, n=1, 2 or 3; human IgG1 heavy chain constant region, GenBank No. AK303185.1) heavy: QLQLVESGGGLVQPGGSLTLSCLASGFTFSHYPMSWVRQAPGKGLEWVSVIGSDGAIKHYSDSVKGRFAISRDNAKNTLYLQMNSLKPEDTAVYYCAEGDSRYVRNRARGQGTQVTVSS | 69.2 | 27.6 | 1.19 | – |
| B1F8 anti-TGFβ single domain heavy-chain antibody (variable region, linker peptide, human IgG1 heavy chain constant region) (Fc fusion, also called BIF8; not shown: linker peptide (GGGGS)n, n=1, 2 or 3; human IgG1 heavy chain constant region, GenBank No. AK303185.1) heavy: QVQLVESGGGLVQPGGSLRLSCAASGSIFGVFYMGWFRQAPGKQREMVAISTDDRTSYVDSVKGRFTISRDNAKNTLALQMNSLKPEDTAVYFCNLNQLGTDYWGPGTQVTVSS | 0.785 | 1.42 | 1.29 | – |
| B1B8-Fc-B1B8 (Fc fusion) heavy: EVQVVESGGGLVQPGGSLTLSCVASGFAFSFTPMRWVRQAPGKGLEWVSSISIRGDTTDYADSVKGRFTISRDNAKNTLYLQMNSLKPEDTAVYYCSRGSSISTSTERTQGTQVTVSSGGGGSDKTHTCPPCPAPPVAGPSVFLFPPKPKDTLMISRTPEVTCVVVDVSHEAPEVQFNWYVDGVEVHNAKTKPREEQFNSTFRVVSVLTVVHQDWLNGKEYKCKVSNKGLPAPIEKTISKTKGQPREPQVYTLPPSRDELTKNQVSLTCLVKGFYPSDIAVEWESNGQPENNYKTTPPVLDSDGSFFLYSKLTVDKSRWQQGNVFSCSVMHEALHNHYTQKSLSLSPGGGGGSEVQVVESGGGLVQPGGSLTLSCVASGFAFSFTPMRWVRQAPGKGLEWVSSISIRGDTTDYADSVKGRFTISRDNAKNTLYLQMNSLKPEDTAVYYCSRGSSISTSTERTQGTQVTVSS | – | – | – | 0.813 |
| B2C2 anti-TGFβ single domain heavy-chain antibody (variable region, linker peptide, human IgG1 heavy chain constant region) (Fc fusion, not shown: linker peptide (GGGGS)n, n=1, 2 or 3; human IgG1 heavy chain constant region, GenBank No. AK303185.1) heavy: QLQLVESGGGLVQPGGSLRLSCAGSGIAFSRVTMAWSRQAPGKQRELVALITDGNRSAYVDSVKGRFTISRDNTKKTMSLQMNDLKPEDTAVYYCVATDWVPTRRDYWGQGTQVTVSS | 1.25 | 1.42 | 1.43 | – |
